# Source: IntAct's records for PubMed 15990873
# B1: Protein MKS1 (Arabidopsis thaliana (Mouse-ear cress)), Q8LGD5 (parent)
# chain: MDPSEYFAGGNPSDQQNQKRQLQICGPRPSPLSVHKDSHKIKKPPKHPAPPPNRDQPPPYIPREPVVIYAVSPKVVHATASEFMNVVQRLTGISSGVFLESGGGGDVSPAARLASTENASPRGGKEPAARDETVEINTAMEEAAEFGGYAPGILSPSPALLPTASTGIFSPMYHQGGMFSPAIPLGLFSPAGFMSPFRSPGFTSLVASPTFADFFSHIWDQD
# partner: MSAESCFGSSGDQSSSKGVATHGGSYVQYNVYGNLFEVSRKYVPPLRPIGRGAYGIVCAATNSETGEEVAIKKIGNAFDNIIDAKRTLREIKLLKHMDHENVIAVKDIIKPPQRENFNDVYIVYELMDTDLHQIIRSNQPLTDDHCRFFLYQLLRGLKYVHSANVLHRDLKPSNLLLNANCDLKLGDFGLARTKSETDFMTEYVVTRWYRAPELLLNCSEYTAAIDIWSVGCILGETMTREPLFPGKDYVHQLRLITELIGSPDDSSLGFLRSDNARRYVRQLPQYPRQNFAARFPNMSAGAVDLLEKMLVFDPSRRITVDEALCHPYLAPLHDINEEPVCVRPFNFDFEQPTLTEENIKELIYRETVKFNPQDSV
# Variants of: B1
# Conditions: with mpk4_arath MPK4, Q39024
row,Variant,effect of a mutation on the interaction
1,S30A,decreasing interaction
